The experiment has as its target Cpn60 (chloroplast chaperonin) of pea stroma (P. sativum (endogenous in pea chloroplasts)). Nature of the experiment: native gel or EMSA. On the technique in general: A gel shift assay detects complexes by their altered migration in electrophoresis.

In turn, “Plsp1 Δβ1-2 imported into isolated chloroplasts (from UniProt Q8H0W1 68-291) (domain or fragment)” displayed a reduction of the 700-kDa band against full-length Plsp1 of 80%.

The values above are taken from article doi:10.1101/2020.04.20.051433.
